# Results: paper doi:10.1101/2025.11.17.685403
# Like-named read-outs stand apart in the source and are kept apart here.
# T1: RFS1 (cShu subunit);RIP1 (cShu subunit);SWS1 (cShu subunit) (Caenorhabditis elegans;Caenorhabditis …, UniProt P34348;Q21621;Q8MYM5 1-245;1-209;1-191, ||)
# T1 sequence 1: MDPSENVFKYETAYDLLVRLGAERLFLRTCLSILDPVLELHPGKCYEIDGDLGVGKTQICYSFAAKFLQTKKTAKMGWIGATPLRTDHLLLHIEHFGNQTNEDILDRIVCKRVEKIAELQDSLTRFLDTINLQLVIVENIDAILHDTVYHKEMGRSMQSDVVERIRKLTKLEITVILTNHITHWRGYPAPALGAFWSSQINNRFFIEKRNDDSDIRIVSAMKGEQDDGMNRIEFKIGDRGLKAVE
# T1 sequence 2: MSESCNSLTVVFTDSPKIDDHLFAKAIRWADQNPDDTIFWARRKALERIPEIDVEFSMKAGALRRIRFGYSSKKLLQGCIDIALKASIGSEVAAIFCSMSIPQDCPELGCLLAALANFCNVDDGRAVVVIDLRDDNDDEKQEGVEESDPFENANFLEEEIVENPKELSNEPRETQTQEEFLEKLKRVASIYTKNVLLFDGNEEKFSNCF
# T1 sequence 3: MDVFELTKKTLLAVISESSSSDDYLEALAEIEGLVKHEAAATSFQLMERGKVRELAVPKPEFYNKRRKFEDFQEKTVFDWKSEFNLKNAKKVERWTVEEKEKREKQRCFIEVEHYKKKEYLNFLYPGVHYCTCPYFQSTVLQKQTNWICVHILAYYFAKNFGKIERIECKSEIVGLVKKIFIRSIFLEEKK
# T2: RFS1 E138A (Walker B);RIP1 (cShu subunit);SWS1 (cShu subunit) (Caenorhabditis elegans;Caenorhabditis …, UniProt P34348;Q21621;Q8MYM5 1-245;1-209;1-191, E138A||)
# T2 sequence 1: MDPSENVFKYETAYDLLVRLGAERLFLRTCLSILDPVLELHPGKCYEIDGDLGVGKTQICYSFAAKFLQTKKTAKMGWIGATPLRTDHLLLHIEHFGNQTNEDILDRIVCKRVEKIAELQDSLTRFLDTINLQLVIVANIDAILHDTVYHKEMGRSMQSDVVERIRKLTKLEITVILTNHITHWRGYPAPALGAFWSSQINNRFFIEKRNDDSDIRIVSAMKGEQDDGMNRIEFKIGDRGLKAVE
# T2 sequence 2: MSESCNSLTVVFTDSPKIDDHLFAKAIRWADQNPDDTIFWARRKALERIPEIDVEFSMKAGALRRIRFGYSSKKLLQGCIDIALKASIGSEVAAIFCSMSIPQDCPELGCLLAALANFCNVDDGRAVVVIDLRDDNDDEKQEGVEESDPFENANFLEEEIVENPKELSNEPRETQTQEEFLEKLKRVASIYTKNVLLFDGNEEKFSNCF
# T2 sequence 3: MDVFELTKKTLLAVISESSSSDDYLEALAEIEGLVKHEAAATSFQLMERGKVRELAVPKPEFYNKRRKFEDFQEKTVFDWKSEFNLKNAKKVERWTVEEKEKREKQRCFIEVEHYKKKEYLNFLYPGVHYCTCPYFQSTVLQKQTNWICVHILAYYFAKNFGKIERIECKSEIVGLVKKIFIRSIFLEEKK
# T3: RFS1 K56A (Walker A);RIP1 (cShu subunit);SWS1 (cShu subunit) (Caenorhabditis elegans;Caenorhabditis …, UniProt P34348;Q21621;Q8MYM5 1-245;1-209;1-191, K56A||)
# T3 sequence 1: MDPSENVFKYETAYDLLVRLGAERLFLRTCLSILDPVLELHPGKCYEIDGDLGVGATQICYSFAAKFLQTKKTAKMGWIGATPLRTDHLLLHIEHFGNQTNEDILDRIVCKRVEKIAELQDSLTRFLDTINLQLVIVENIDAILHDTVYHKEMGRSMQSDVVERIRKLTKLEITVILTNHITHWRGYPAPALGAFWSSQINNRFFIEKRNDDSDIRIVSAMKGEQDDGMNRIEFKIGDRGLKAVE
# T3 sequence 2: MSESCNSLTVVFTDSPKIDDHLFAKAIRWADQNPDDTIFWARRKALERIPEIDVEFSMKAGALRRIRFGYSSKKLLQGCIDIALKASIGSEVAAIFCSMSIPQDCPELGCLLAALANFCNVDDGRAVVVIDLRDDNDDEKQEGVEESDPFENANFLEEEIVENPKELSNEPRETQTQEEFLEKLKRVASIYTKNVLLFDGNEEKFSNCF
# T3 sequence 3: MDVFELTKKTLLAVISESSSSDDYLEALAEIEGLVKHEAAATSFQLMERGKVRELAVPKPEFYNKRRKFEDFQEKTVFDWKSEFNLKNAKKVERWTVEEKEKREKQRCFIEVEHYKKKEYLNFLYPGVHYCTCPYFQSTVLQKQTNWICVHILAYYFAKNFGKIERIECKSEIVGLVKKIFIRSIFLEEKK
# B1: ds21 (dsDNA)
# DNA 1: ACTTACAGCACAGCGGTTTTT
# DNA 2: AAAAACCGCTGTGCTGTAAGT
# B2: ss31 (ssDNA)
# DNA: ACTGCCCTTACAGCACAGCGGTTTTTTTTTT
# B3: 3'-overhang (10 nt) (mixed)
# DNA 1: ACTGCCCTTACAGCACAGCGGTTTTTTTTTT
# DNA 2: CCGCTGTGCTGTAAGGGCAGT
# B4: Fork (10 nt) (mixed)
# DNA 1: ACTGCCCTTACAGCACAGCGGTTTTTTTTTT
# DNA 2: TTTTTTTTTTCCGCTGTGCTGTAAGGGCAGT
# B5: 5'-overhang (10 nt) (mixed)
# DNA 1: ACTGCCCTTACAGCACAGCGG
# DNA 2: TTTTTTTTTTCCGCTGTGCTGTAAGGGCAGT
# B6: ss21 (ssDNA)
# DNA: ACTTACAGCACAGCGGTTTTT
# B7: ds26 (dsDNA)
# DNA 1: ACTGCCCTTACAGCACAGCGGTTTTT
# DNA 2: AAAAACCGCTGTGCTGTAAGGGCAGT
# B8: 5'-overhang (5 nt) (mixed)
# DNA 1: ACTGCCCTTACAGCACAGCGG
# DNA 2: TTTTTCCGCTGTGCTGTAAGGGCAGT
# B9: 3'-overhang (5 nt) (mixed)
# DNA 1: ACTGCCCTTACAGCACAGCGGTTTTT
# DNA 2: CCGCTGTGCTGTAAGGGCAGT
# B10: ss26 (ssDNA)
# DNA: ACTGCCCTTACAGCACAGCGGTTTTT
# B11: Fork (5 nt) (mixed)
# DNA 1: ACTGCCCTTACAGCACAGCGGTTTTT
# DNA 2: TTTTTCCGCTGTGCTGTAAGGGCAGT
# B12: 5'-overhang (20 nt) (mixed)
# DNA 1: TTTTTTTTTTTTTTTTTTTTCTTGACAAGCTTGCGCACT
# DNA 2: AGTGCGCAAGCTTGTCAAG
# B13: ss39 (ssDNA)
# DNA: TTTTTTTTTTTTTTTTTTTTCTTGACAAGCTTGCGCACT
# B14: ds39 (dsDNA)
# DNA 1: TTTTTTTTTTTTTTTTTTTTCTTGACAAGCTTGCGCACT
# DNA 2: AGTGCGCAAGCTTGTCAAGAAAAAAAAAAAAAAAAAAAA
# B15: Fork (20 nt) (mixed)
# DNA 1: TTTTTTTTTTTTTTTTTTTTCTTGACAAGCTTGCGCACT
# DNA 2: AGTGCGCAAGCTTGTCAAGGCACTTTTTTTTTTTTTTTT
# B16: 3'-overhang (20 nt) (mixed)
# DNA 1: CTTGACAAGCTTGCGCACT
# DNA 2: AGTGCGCAAGCTTGTCAAGGCACTTTTTTTTTTTTTTTT
# Assays:
# Assay in all cases: fluorescence polarization
# [1] = target: T1, RFS1 (cShu subunit);RIP1 (cShu …)
# [2] = target: T2, RFS1 E138A (Walker B);RIP1 (cShu …)
# [3] = target: T3, RFS1 K56A (Walker A);RIP1 (cShu …)
# [4] = target: T1, RFS1 (cShu subunit);RIP1 (cShu …); remark: listed apart in the source
# [5] = target: T2, RFS1 E138A (Walker B);RIP1 (cShu …); remark: listed apart in the source
# [6] = target: T3, RFS1 K56A (Walker A);RIP1 (cShu …); remark: listed apart in the source
# [7] = target: T1, RFS1 (cShu subunit);RIP1 (cShu …); remark: listed apart in the source
# [8] = target: T2, RFS1 E138A (Walker B);RIP1 (cShu …); remark: listed apart in the source
# [9] = target: T3, RFS1 K56A (Walker A);RIP1 (cShu …); remark: listed apart in the source
# [10] = target: T1, RFS1 (cShu subunit);RIP1 (cShu …); remark: listed apart in the source
binder,measurement,setting,value
B1,binding result,[1],no binding
B2,Kd,[1],3.2 ± 0.3 µM
B3,binding result,[1],no binding
B4,binding result,[1],no binding
B5,binding result,[1],no binding
B6,binding result,[1],no binding
B7,binding result,[1],no binding
B8,binding result,[1],no binding
B9,binding result,[1],no binding
B10,Kd,[1],4.2 ± 0.4 µM
B11,binding result,[1],no binding
B12,Kd,[2],3.9 ± 0.1 µM
same,Kd,[3],4.5 ± 0.3 µM
same,Kd,[4],4.2 ± 0.5 µM
same,Kd,[5],1.2 ± 0.1 µM
same,Kd,[6],4.7 ± 0.2 µM
same,Kd,[7],3.8 ± 0.3 µM
same,Kd,[8],0.76 ± 0.04 µM
same,Kd,[9],3.9 ± 0.4 µM
same,Kd,[10],0.695 ± 0.003 µM
B13,Kd,[2],2.7 ± 0.2 µM
same,Kd,[3],3.3 ± 0.2 µM
same,Kd,[4],2.9 ± 0.1 µM
same,Kd,[5],2.2 ± 0.1 µM
same,Kd,[6],3.3 ± 0.1 µM
same,Kd,[7],2.9 ± 0.3 µM
same,Kd,[8],1 ± 0.02 µM
same,Kd,[9],3 ± 0.1 µM
same,Kd,[10],1 ± 0.1 µM
B14,binding result,[2],no binding
same,binding result,[3],no binding
same,binding result,[4],no binding
B15,Kd,[2],1.9 ± 0.2 µM
same,Kd,[3],2.5 ± 0.3 µM
same,Kd,[4],2.8 ± 0.3 µM
same,Kd,[5],0.38 ± 0.03 µM
same,Kd,[6],2.5 ± 0.1 µM
same,Kd,[7],0.5 ± 0.02 µM
same,Kd,[8],0.14 ± 0.01 µM
same,Kd,[9],2.68 ± 0.08 µM
same,Kd,[10],0.21 ± 0.02 µM
B16,binding result,[4],no binding
